Data: patent US9044392B2, “Nylon-3 co-polymers and synthetic lung surfactant compositions containing same” (Wisconsin Alumni Research Foundation, priority 2010, dated 2015)
Read-outs that look alike come from different tables or passages of the source.

Experiments:
[1] = Pulsating bubble surfactometry (PBS), static-bubble mode adsorption; assay type: physicochemical; conditions: 37° C., mimic 10 wt % in TL, originally synthesized polymers
Description: (§1) Surfactant Sample Preparation: The lipids DPPC, POPG, and PA were individually dissolved in a chloroform/methanol solution (3/1 [v/v]) to a known concentration (˜2 or 4 mg mL^−1). Single-lipid solutions were then combined by volume at the ratio of DPPC:POPG:PA, 68:22:9 [wt:wt:wt] and to a known total lipid concentration (˜2 mg mL^−1). This well-characterized and well-known lipid formulation is considered an adequate mimic of the non-protein (lipid) fraction of LS.^45 The peptides, peptoid, and copolymers were individually dissolved in methanol from a lyophilized powder to a known concentration (1-2 mg mL^−1). For the PBS studies, the peptides, peptoids, and polymers were ‘spiked’ into the lipid mixture at 10 wt % relative to the total lipid content (9.1 absolute wt %), and to a final concentration of ˜1 mg lipid mL^−1. For comparative purposes, the inclusion of peptide/peptoid/copolymer at 10 wt % corresponds to 10 wt % SP-B1-25 (9.1 absolute wt %) relative to the total lipid content. The total combined protein fraction in natural LS is estimated to be ˜10 wt %.^18 For PBS experiments, all σ reported is the standard deviation of the mean.
(§2) Pulsating Bubble Surfactometry: A commercial PBS instrument (General Transco, Largo, Fla.), modified with a direct, real-time imaging system, which has been previously described and validated in detail,^44 was utilized to obtain both static-mode and dynamic-mode data. Samples were dried from chloroform/methanol 3/1 [v/v] in Eppendorf tubes using a DNA 120 speedvac (Thermo Electron, Holbrook, N.Y.), forming a pellet. The pellet was suspended in buffer (150 mM NaCl, 10 mM HEPES, 5 mM CaCl2, pH 6.9) to 1.0 mg lipid mL^−1, with a final known volume of ˜70 μL. The samples were then mixed with a pipette 20 times, sonicated with a Fisher Model 60 probe sonicator for two 15 second spurts, and then mixed again 20 times to form a dispersed suspension. Samples were then loaded into a small plastic sample chamber (General Transco) using a modified leak-free methodology.^43,44 The sample chamber was then placed in the instrument, surrounded by a water bath held at 37° C. A bubble with a radius of 0.4 mm was then formed, and surface area was monitored throughout the experiment.
(§3) Static-mode adsorption data were collected for 20 minutes, where the suspension was allowed to adsorb to the bubble surface over time. […] Dynamic-mode data were then subsequently obtained for each sample at the adult respiratory cycle frequency of 20 cpm for 10 minutes, with a 50% reduction in surface area per pulsation cycle. PBS experiments were repeated three to six times for each sample to ensure repeatability. Representative PBS loops are presented at five minutes of cycling, and indicate clockwise bubble expansion and counterclockwise compression (see FIGS. 6A, 6B, 6C, and 6D). Average γ±σ at selected time intervals are listed in the Examples for both data collection modes. Percent compression is defined here as 100*[(SAmax−SA20)/(SAmax)], where SAmax was the maximum SA value at expansion, and SA20 was the SA at which γ first reaches 20 mN m^−1 upon compression (FIG. 5).
Pulsating Bubble Surfactometry: Static-Bubble Mode. The immediate adsorptive, γ-reducing effect, and stability of the films over time at a bubble […] interface were assessed via PBS in static-bubble mode. […]

[2] = Pulsating bubble surfactometry (PBS), dynamic-bubble mode, 20 cpm; assay type: physicochemical
Description: as §1, §2, §3
Pulsating Bubble Surfactometry: Dynamic-Bubble Mode. The dynamic surfactant activity during changes in volume or film surface area provides an indication of film sustainability over time. Bubble pulsation at the approximate adult respiratory rate of 20 cycles per minute (cpm) in PBS dynamic-bubble mode at 37° C. permits a simplified evaluation of such dynamic film behavior.^44 In dynamic mode, after static-bubble adsorption, the bubble was subsequently pulsed for 10 minutes and y was recorded with respect to surface area. FIGS. 4A, 4B, 4C, and 4D depict the attained maximum and minimum γ (γmax/min) at 5 minutes of cycling for all lipid films containing polymers or positive controls. Mean γmax/min's±σ at selected time intervals for up to 10 minutes of cycling are located in Tables 4 and 5. […]

[3] = dynamic-bubble mode, cited from earlier work
[4] = at 5 minutes, static-bubble mode, TL film; cited from earlier work
[5] = 5 minutes of dynamic-bubble cycling, 20 cpm, 37° C. (FIGS. 4A-4D)
[6] = dynamic-bubble pulsation, 1 min, 37° C., mimic 10 wt % in TL, originally synthesized polymers
[7] = dynamic-bubble pulsation, 2.5 min, 37° C., mimic 10 wt % in TL, originally synthesized polymers
[8] = dynamic-bubble pulsation, 10 min, 37° C., mimic 10 wt % in TL, originally synthesized polymers

SP-B1-25: modified peptide SP-B1-25 (Cys8,11→Ala), surface-active peptide fragment of SP-B, positive control (FPIPLPYAWLARALIKRIQAMIPKG; Pulmonary surfactant-associated protein B in Tanaka lipid film; UniProt P07988 201-225, looked up, variant C8A C11A)
γ 1 min Avg (mean surface tension) ([1]; 1 min): 40.5 mN m−1
γ 2.5 min Avg (mean surface tension) ([1]; 2.5 min): 39.4 mN m−1
γ 5 min Avg (mean surface tension) ([1]; 5 min): 37.9 mN m−1
γ 10 min Avg (mean surface tension) ([1]; 10 min): 36.8 mN m−1
γeq 20 min Avg (mean surface tension) ([1]; 20 min): 35.6 mN m−1
γmax [2, 5]: ~50 mN m^−1
γmin [2, 5]: near zero
Avg % Comp: percent bubble surface area compression required to reach 20 mN m-1 upon compression ([2]; at 5 minutes of dynamic-bubble pulsation on the PBS, 37° C.): 33.2%
γ max Avg, 1 min [2, 6]: 49.6 mN m−1
γ min Avg, 1 min [2, 6]: <1 mN m−1
γ max Avg, 2.5 min [2, 7]: 49.9 mN m−1
γ min Avg, 2.5 min [2, 7]: <1 mN m−1
γ max Avg, 10 min [2, 8]: 49.8 mN m−1
γ min Avg, 10 min [2, 8]: <1 mN m−1

B1: SP-B: porcine-derived lung surfactant protein B in the Tanaka lipid film (protein, UniProt P15782 1-79, looked up)
Pulmonary …: FPIPLPFCWLCRTLIKRIQAVVPKGVLLKAVAQVCHVVPLPVGGICQCLAERYIVICLNMLLDRTLPQLVCGLVLRCSS
modifications: Pulmonary surfactant-associated protein B in Tanaka lipid film
γmax ([3]; PBS cycling loop): ~36 mN m^−1
γmin ([3]; PBS cycling loop): near-zero
percent compression to reach 20 mN m^−1 [3]: ~21%
adsorbed γ [4]: ~26 mN m^−1
